Test results: the supplement of paper PMC10567573

B1: HESX1 (parent)
chain: ENKPSTCSFSIERILGLDQKKDCV
B2: ZC3H15 (parent)
chain: RKADFKAGKALVISGREVFEFRPE

Variants of: B1
Experiment: protein stability index of a GFP-peptide fusion (GPS, HEK-293T) (PSI 1-6); higher = more stable
Details: c terminus: a fixed tail appended
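Note: lentivirally expressed fusions sorted by FACS into six bins by GFP to DsRed ratio, PSI derived from sequencing read proportions per bin multiplied by bin number.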

Protein stability index of substitutions, site by site:
N2: D 2.94; H 2.57; K 3.37; G 2.49; C 2.57; I 2.32; F 1.97; A 2.15; E 3.52
E1: W 2.37; L 2.13; R 2.79; S 2.37; I 2.68; M 2.45; Q 2.28; K 1.68; C 2.27; Y 1.95; P 2.79; N 2.77; F 1.92; V 2.32; H 2.73; T 2.85; G 2.32; D 3.29; A 2.61

Variants of: B2
Experiment: as above
Details: c terminus: a fixed tail appended

Protein stability index, by site and new letter:
E20: C 2.68; M 2.27; F 1.96; Y 1.66; K 2.68; V 2.34; I 1.71; D 3.37; W 1.61; T 2.73; R 3.14; G 3.1; H 2.13; L 2.51; N 2.81; P 2.62; Q 2.74; A 2.5; S 2.1
F19: A 4.01; D 4.68; N 4.05; W 2.43; P 4.08; M 3.43; G 3.7; E 4.23; T 3.7; Q 3.63; I 3.51; C 3.76; H 4.13; K 3.47; R 4.24; S 3.51; V 3.25; Y 2.75; L 3.33
P23: L 1.61; N 3.53; G 3.18; I 1.35; H 2.62; W 1.24; T 3.17; F 2.27; C 2.42; V 1.94; Q 3.31; M 2.09; Y 1.9; D 3.82; S 3.44; E 3.38; K 3.35; R 2.73
E17: S 2.06; W 2.12; T 1.75; Y 2.19; R 2.67; Q 1.96; V 2.25
R22: M 3.54; A 3; H 2.72; Y 2.84; C 2.24; E 3.53; W 2.39; V 2.78; Q 3.83; L 2.35; K 3.24; N 3.07; G 3.4; I 2.81; F 2.98; D 3.72; T 3.03; P 3.25; S 3.29
V18: E 3.89; M 2.8; L 2.72; D 3.69; N 3.61; P 3.05; S 3.34; H 3.22; R 3.58; A 3.33; W 2.86; T 3.32; K 3.56; F 2.68; Y 2.74; I 2.95; G 3.37; C 2.95; Q 3.46
F21: P 3.69; D 4.04; T 3.73; S 3.91; R 3.48; N 3.73; G 4.2; W 2.85; K 3.58; Q 4.23; L 2.82; C 3.78; E 4.46; I 2.68; Y 3.21; H 3.57; V 3.5; A 3.05; M 3.29
E24: F 1.85; W 1.84; M 2; I 1.94; R 2.43; V 2; D 3.11; G 2.12; K 2.31; T 2.52; L 1.9; P 2.44; H 2.18; Y 2.17; Q 2.84; N 2.84; A 2.69; S 2.78; C 2.22
